In patent US20030198634A1 (published 2003):

Columns and labels:
human lymphotoxin (TNFβ) = target: T1, human lymphotoxin (TNFβ) (human, UniProt P01374 35-205, limits assumed); assay: cell-based or functional assay
T1 sequence (looked up): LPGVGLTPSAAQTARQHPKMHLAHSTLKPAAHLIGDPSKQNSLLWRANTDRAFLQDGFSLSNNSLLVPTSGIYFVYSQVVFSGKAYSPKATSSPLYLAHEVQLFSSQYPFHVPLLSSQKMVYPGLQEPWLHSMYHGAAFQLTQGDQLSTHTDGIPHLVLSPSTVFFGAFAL

[1] = target: human tumor necrosis factor-α (TNFα) (human, UniProt P01375 77-233); assay: cell-based or functional assay
human tumor necrosis factor-α (TNFα), sequence (P01375 77-233): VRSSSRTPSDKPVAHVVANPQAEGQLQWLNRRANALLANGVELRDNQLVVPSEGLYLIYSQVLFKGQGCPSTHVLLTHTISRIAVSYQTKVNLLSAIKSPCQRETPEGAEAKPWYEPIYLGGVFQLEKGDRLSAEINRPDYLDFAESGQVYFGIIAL

In the case of “p55-sf2 (p55 TNF receptor/IgG1 heavy chain single fusion with truncated light chain JCK) (from UniProt P19438) (Fc fusion)”, the amount needed for the same degree of inhibition of TNFβ, against p75P-sf2 (fold against p75P-sf2) (human lymphotoxin (TNFβ)) is reported as 3.

B1: chimeric mouse/human IgG1 anti-platelet mAb (7E3) (antibody, INN chains, looked up, V domains shown)
VH: EVQLQQSGTVLARPGASVKMSCEASGYTFTNYWMHWVKQRPGQGLEWIGAIYPGNSDTSYIQKFKGKAKLTAVTSTTSVYMELSSLTNEDSAVYYCTLYDGYYVFAYWGQGTLVTVSA
VL: EIVLTQSPVTLSVTPGDSVSLSCRASRDISNNLHWFQQTSHESPRLLIKYASQSMSGIPSRFSGSGSGTDFTLSINSVETEDFGMYFCQQTNSWPYTFGGGTKLEIK
modifications: IgG1
For B1, the IL-6 in supernatant of FS-4 fibroblasts (ng/ml), rhTNF 0.3 ng/ml, antibody 4 µg/ml (no antibody: 1.36) [1] was 1.6 ng/mL, the IL-6 in supernatant of FS-4 fibroblasts (ng/ml), rhTNF 1.5 ng/ml, antibody 4 µg/ml (no antibody: 2.00) [1] was 1.96 ng/mL and the IL-6 in supernatant of FS-4 fibroblasts (ng/ml), rhTNF 7.5 ng/ml, antibody 4 µg/ml (no antibody: 2.56) [1] was 2.16 ng/mL.

B2: p75P-sf2 (p75 amino acids 1-182 fused to the IgG1 heavy chain; lacks the C-terminal 53 amino acids of the p75 extracellular domain) (Fc fusion)
chain: QLPAQVAFTPYAPEPGSTCRLREYYDQTAQMCCSKCSPGQHAKVFCTKTSDTVCDSCEDSTYTQLWNWVPECLSCGSRCSSDQVETQACTREQNRICTCRPGWYCALSKQEGCRLCAPLRKCRPGFGVARPGTETSDVVCKPCAPGTFSNTTSSTDICRPHQICNVVAIPGNASMDAVCTSTSDGTLVTVSS
For B2, the “IC50 = concentration of fusion protein required to inhibit 2 ng/ml (39.2 pM) TNFα by 50%, WEHI 164 cytotoxicity assay” value [1] was 70 pM and the “Molar ratio fp: TNFα at IC50, WEHI 164 cytotoxicity assay” value [1] was 1.8.

B3: p75-sf2 (complete extracellular domain of p75 fused to the IgG1 heavy chain) (Fc fusion)
chain: QLPAQVAFTPYAPEPGSTCRLREYYDQTAQMCCSKCSPGQHAKVFCTKTSDTVCDSCEDSTYTQLWNWVPECLSCGSRCSSDQVETQACTREQNRICTCRPGWYCALSKQEGCRLCAPLRKCRPGFGVARPGTETSDVVCKPCAPGTFSNTTSSTDICRPHQICNVVAIPGNASMDAVCTSTSPTRSMAPGAVHLPQPVSTRSQHTQPTPEPSTAPSTSFLLPMGPSPPAEGSTGDGTLVTVSS
With B3 the “amount needed for the same degree of inhibition of TNFβ, against p75P-sf2” value (human lymphotoxin (TNFβ)) was 3 fold against p75P-sf2.
